Drawing on patent publication US20070225241A1, this text covers average molar ratio of Gdown1 to Rpb5 in FI RNAPII for one substance.

For this assay, the target named is calf thymus RNA Polymerase II (12-subunit enzyme, Form II; core of Form I) (bovine (calf thymus)). Kind of assay: quantification of seven Coomassie stained SDS-PAGE gel bands of purified or reconstituted FI RNAPII.

Take “native calf thymus Gdown1 (41 kD polypeptide of Form I RNAPII) (from UniProt Q17QE3 1-370)”: the average molar ratio of Gdown1 to Rpb5 in FI RNAPII came out at 1 molar ratio.
